# In article PMC11761711, “Insights into the flexibility of the domain‐linking loop in actinobacterial coproheme decarboxylase through structures and molecular dynamics simulations” (Protein Science : A Publication of the Protein Society, 2025):
# B1: Corynebacterium diphtheriae coproheme decarboxylase (enzyme)
# chain: MAEKLNFEELNSMQRYSQFAVFRAIPGALGSDRAEIVAQAQSFFDGLETAGKVEVRGIYDLAGCRAEADFMIWWIAEEFEEIQAAFARFRRETVLGQVSEVAWLGNSLHRPAEFNRSHLPSFIMGEIPGDWITVYPFVRSYDWYIMDPQKRRKILAEHGQAARDFPDVRANTVPAFALGDYEWMLAFEAPRLDRIVDLMHKMRYTEARLHVREETPFFTGRRVSEVSELVNVLP
# notes: coproheme decarboxylase (ChdC) of Corynebacterium diphtheriae, wild type; Homopentamer; also called CdChdC; apo-CdChdC; source: recombinant, expressed and purified as described previously (Michlits et al. 2020); Ni2+ column, HRV 3C protease cleavage, SEC
# Target: the molecule itself
# Test: cryo-EM structure; apo-CdChdC, SEC-purified, 70 to 120 uM on grids, single-particle reconstruction with C5 symmetry, 2.27 A
protein,measurement,value
B1,stoichiometry N,5
